Paper PMC2938849

Molecular target: Hsp104ΔM (yeast) (UniProt P31539)
Assay: SEC

Substance: Hsp104ΔM (from UniProt P31539 1-908) (natural protein)
- stoichiometry N: 6
